Common to all, as to assay: iSort-seq, translational repression in E. coli Top10, 37 C
Holding throughout (conditions): tags: C-GFP (kept); chain copies: 2

One data set addresses PP7 coat protein dlFG (Pseudomonas phage PP7 (Bacteriophage …, UniProt P03630, ins1-2LA;del68-75insSG)).
The target of data set [1] is MS2 coat protein V29I dlFG (Escherichia phage MS2 (Bacteriophage …, UniProt P03612, V30I;del68-81insG)).
Data set [2] concerns the target T1, Qbeta coat protein (strain MX1) (Qbeta virus (strain MX1), UniProt Q9T0R9).
T1 sequence: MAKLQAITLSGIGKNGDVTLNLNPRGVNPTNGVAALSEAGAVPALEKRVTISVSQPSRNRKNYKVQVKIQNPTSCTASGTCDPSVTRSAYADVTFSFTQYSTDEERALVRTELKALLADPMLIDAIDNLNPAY

B1: pp7_wt_5_d1 (ssRNA)
RNA: UUAAUUAAAGAGGAGAAAGGUACCCAUGCUAAGGAGUUUAUAUGGAAACCCUUAUGUGAGCAAGGGCGAGGAGGAUAACAUGGCCAUCAUCAAGGAGUUCAUGCGCUUCAAGGUGCACAUGGAGGG
In the case of B1, in the data set with PP7 coat protein dlFG, the binding signal was 6.62 Rscore (log-likelihood ratio).

B2: ms2_wt_1_d1 (ssRNA)
RNA: UUAAUUAAAGAGGAGAAAGGUACCCAUGCACAUGAGGAUUACCCAUGUUGUGAGCAAGGGCGAGGAGGAUAACAUGGCCAUCAUCAAGGAGUUCAUGCGCUUCAAGGUGCACAUGGAGGG
B2: in data set [1], the binding signal was 21.6 Rscore (log-likelihood ratio).

B3: qb_NOTpre_changeBulge_0004_d2 (ssRNA)
RNA: UUAAUUAAAGAGGAGAAAGGUACCCAUGGCAUGCAUGUCUAAGACAGCAUCUGUGAGCAAGGGCGAGGAGGAUAACAUGGCCAUCAUCAAGGAGUUCAUGCGCUUCAAGGUGCACAUGGAGGG
For the molecule B3, in data set [2], the binding signal was 9.05 Rscore (log-likelihood ratio).

The values above are taken from publication PMC7952577, “Overcoming the design, build, test bottleneck for synthesis of nonrepetitive protein-RNA cassettes”.
